Molecular target: 6xHis-tag M1 protein from Influenza A/FPV/Rostock/34, labelled with Alexa Fluor 488 (M1-Alexa488) (Influenza A virus A/FPV/Rostock/34) (UniProt P03487)
Assay: […], pH 7.4, NaCl ~45 mM; […]

6xHis-tag M1 protein from Influenza A/FPV/Rostock/34, labelled with Alexa Fluor 488 (M1-Alexa488) (from UniProt P03487 1-252) (natural protein)
stoichiometry N: 15

Source: article PMC6682550
